The test has as its target T1, natural Can f 1 (Canis lupus familiaris (dog)).
T1 construct: Can f 1, major dog allergen, lipocalin, Canis familiaris; isolated from the natural source; model in the complex with 1J11 Fab starts at Ala5; numbers count on: the mature protein; Natural preparation; also called nCan f 1
Briefly: SPR; localized surface plasmon resonance (LSPR) on an OpenSPR (Nicoya Lifesciences). The settings on record: both partners purified. (In general: In SPR one partner is held on a chip, and binding of the other changes the refractive index at the surface.)

T1 sequence (chain, as listed by the source): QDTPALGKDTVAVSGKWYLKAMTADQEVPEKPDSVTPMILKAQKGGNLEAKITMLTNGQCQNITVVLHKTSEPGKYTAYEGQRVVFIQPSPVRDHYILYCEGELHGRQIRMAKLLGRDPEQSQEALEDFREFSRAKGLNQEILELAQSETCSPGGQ

B1: human IgE monoclonal antibody 1J11 (antibody, V domains shown)
VH: QVQLVESGGGVVQPGSSLRLSCAVSGFTVRSYGMHWVRQAPGKGLEWVALILFDGTTKHYADSVKGRFTISRDNSKDTLYLQMTSLGAEDTAMYYCVRDFNQFVKRFVDGPAFDLWGQGTRVTVSS
VL: SYELTQPPSVSVSPGQTANITCSGDKLGDKFTSWYQQRPGQSPVLVIYQDIERPSGIPERFSGSNSGNTATLTISGTQALDEADYYCQAWDTSTVVFGGGTRLTVL
notes: variable region as the heavy chain of m4 (PDB 8VQF); as the light chain of m4 (PDB 8VQF); Human IgE; details of isolation, production and purification are in Supplementary material; also called hIgE mAb 1J11; IgE mAb 1J11; source: B cell hybridomas from allergic subjects; copies: 2 + 2
Take B1: the Kd (commonly a measure of binding affinity in units of concentration) came to 0.2 ± 0.1 nM.

B2: human IgE monoclonal antibody 12F3 (antibody, V domains shown)
VH: QVQLVQSGAEVQKPGSSVKVSCKASGGTFSRYPLIWVRQTPGQGLEWMGGIFPVIGRTNYAEKFQGRVTITADESTSTAYMELNSLTSEDTAVYYCARLDTYEILGYGTDVWGQGTTVTVSS
VL: EIVLTQSPATLSLSPGERATLSCRASESVSSSVAWYQQKFGQAPRLLIYDASNRATGIPARFSGSGSGTDFTLTISSLEPEDFAVYYCQLRSNWPPLTFGGGTKVQIK
notes: variable region as the heavy chain of m5 (PDB 9NPI); as the light chain of m5 (PDB 9NPI); Human IgE; details of isolation, production and purification are in Supplementary material; also called hIgE mAb 12F3; IgE mAb 12F3; source: B cell hybridomas from allergic subjects; copies: 2 + 2
In turn, B2 yielded a Kd of 3.6 ± 1.3 nM.

Source of the values: publication PMC12363406, “Human IgE monoclonal antibodies define two unusual epitopes trapping dog allergen Can f 1 in different conformations” (Protein Science : A Publication of the Protein Society, 2025).
